Among the data in patent US20210371542A1 are lytic activity against Hep3B cells values, retold here.

This assay has as its target human glypican-3 (GPC3) on the cell surface (human), P51654. The assay is described as follows: cell-based or functional assay.

B1: CAR.hYP7 (GPC3-targeted chimeric antigen receptor with humanized YP7 scFv, CD8α hinge and TM, 4-1BB, CD3ζ) (protein)
chain: HMEVQLVESGGGLVQPGGSLRLSCAASGFTFNKNAMNWVRQAPGKGLEWVGRIRNKTNNYATYYADSVKARFTISRDDSKNSLYLQMNSLKTEDTAVYYCVAGNSFAYWGQGTLVTVSAGGGGSGGGGSGGGGSDIVMTQSPDSLAVSLGERATINCKSSQSLLYSSNQKNYLAWYQQKPGQPPKLLIYWASSRESGVPDRFSGSGSGTDFTLTISSLQAEDVAVYYCQQYYNYPLTFGQGTKLEIKTSTTTPAPRPPTPAPTIASQPLSLRPEACRPAAGGAVHTRGLDFACDIYIWAPLAGTCGVLLLSLVITKRGRKKLLYIFKQPFMRPVQTTQEEDGCSCRFPEEEEGGCELRVKFSRSADAPAYQQGQNQLYNELNLGRREEYDVLDKRRGRDPEMGGKPRRKNPQEGLYNELQKDKMAEAYSEIGMKGERRRGKGHDGLYQGLSTATKDTYDALHMQALPPR
For B1, the lytic activity against Hep3B cells at E:T ratio of 5 (HCC patient-derived T cells) was in the range of 30 to 70%; the lytic activity against Hep3B cells at E:T ratio of 5 (HCC patient-derived T cells), average stood at 50%; the lytic activity against Hep3B cells at E:T ratio of 5 (healthy donor-derived T cells), average amounted to 90%.
